According to paper PMC9772109:

Target: H10 HA trimer of A/Jiangxi-Donghu/346/2013 (H10 JD13) (influenza A virus A/Jiangxi-Donghu/346/2013 (H10N8))
Experiment: negative stain EM, 3D reconstruction

Substance “H10 HA trimer of A/Jiangxi-Donghu/346/2013 (H10 JD13) (natural protein)” has a stoichiometry N of 3.
